Assay: soluble on expression in E. coli; label from the status in PepcDB or PDB records

| Sequence | soluble on expression in E. coli |
| --- | --- |
| MHRKISCGINDIKSEFFEAERMNNSVTVEVTRGNLVESRHQGLAVVVDGDGGVLFSAGDIERGIFPRSACKAMQALPLVESGATDAYGFGNRELALACSSHSGEDAHAELAAAMLAKAGRDVDTLECGAHWSSDQKTIIHQARTLEKPTALHNNCSGKHSGFICACCHTGTDPKGYVGYDHPLQRQIRATMESLTGAALGHDNCGVDGCSIPTYAVPLKGLAHGFAKMATGRGLEAERAKASRRLIEACMAEPFYVAGTGRACTKLMQIAPGKIFAKTGAEGVFIAALPNQGIAMAVKCEDGTTRAAEAMVTALLARYFDDGSAEQQALKGMANRQMRNWNGIHVGDISVIGLAAALEHHHHHH | soluble |
| MHRKRERERERERERERERERERERERERERGRDEETSKEKRVTET | soluble |
| MHRSFAAFSILLVAIPQASSFLFGGGCCGAPAVQSCCGSTSWAYAPPQVIGYERIPLYAKVPMPPPPTYVQPPLVGYVSPQQPVAPQGYQQQPQQQFMGQVEQGVEITPDQINSGYQPQQQMGFQSQQQQFSSIPNSGSSNYGADSSFSGSQPAGLVQSVASSAAFEAAGVAPSARRLRKFKN | not soluble |
| MHRSFGNLEFFRFQLSNQCPALQNIELEVPMHIERLDISEFGVEINRTSYAFQVKTDEEIDQTFDVDEFGMIDYDLVVDQNPDTILLDNRDPSNMHLELSYELQLLQNEYDRIEGLNGNDGIEDIEGLAKAREALEKRKTRYQFKYLKLMAREMGIKSQISIAREPLDQHIRFSINSPDRVPLYEEHLAYNKKIHEAQRSLLEKLFVGRPTICVKSLFIDSCFIVCIPKNMQFKVKHLSLSCNNFDEDLNAIRPLLHVSSFPLESIEVYGKWDSLDPILKTCGVLYFPGGCKIEKLLKLQNFHRKVHVNIFDALKQLPPSVKSWLENRQEIGTEYTFDISNEDQIILFLDEMKESNADRIVDEAELHVKLRMDNSTELYISYDPARDNVGRMKMKFQVQ | not soluble |
| MHVAMALADIDRVGGVVIIDPVVHPLTPKHPPNQAERGQIRADRCSTAVFAWLFHEWNATGRSALMRGLTCFAGNTNAQPKHPRRAFRDRLGSTGPRPPRLTVASTPSRQPHHRRILIVTKAKSGSVAPELDTPTDLPPQSVEKISTALNGLLADSFALYLKTKNFHWHISGRHFRDYHLLLDEQSAQILATTDDLAERVRKVGGTTLRSIGHISKLQSIQDNNDDYVPPREMLRELMNDNKKVAAAMRKAHEIVDECKDAASAGLLENFIDETEKRTWFLFEATRQEGANEA | not soluble |
| MHVNKKIIYVSHDAHFHGAQLLSLHTIKALKENFHYSVAIISIRTGILIHDFQKYGPVYCLEEDYPTENKVESLIKKLLSQDYTIAICSTVISGDIVALLAKHNIKVISLIHELPHLIQQYSAEGKARKIAESAHKIVFPSQYVYEKFHTITQLDHQKCHILPQGLFNHNPYKNNIAKARNELRKKHNLPLDSKIILGVGFADHRKGIDLFSLIAYSVRKIHKNIHFIWVGKTDVHFLNTLSQRYTAHFTLVEPTPDIGLYNAGADLYLLTSREDPFPNVVLEALDTKVPVIGFKNAGGFGDVVTEQTGALVDYLNLPMMLEKIYEFIGDEDLRLQKGTFGQELIEKNFNFLHYIYQLLNLLEHNYKKISVIVPNYNYEKYLSERVKSILNQTYPLYELIFLDDASTDNSVSIFEKLLSNENKHHLKIQQIINDKNSGSVFKQ | not soluble |
| MHVVYPGSFDPLTNGHLDVIQRASRLFEKVTVAVLENPSKRGQYLFSAEERLAIIREATAHLANVEAATFSGLLVDFVRRVGAQAIVKGLRAVSDYEYELQMAHLNRQLYPGLETLFILAATRYSFVSSTMVKEIARYGGDVSKLVPPATLRALKAKLGQ | soluble |
| MIAITGATGQLGHYIIESLMKTVPASQIVAIVRNPAKAQALAAQGITVRQADYSDEAALTSALQGVEKLLLISSSEVGQRAPQHRNVINAAKAAGVKFIAYTSLLHADTSPLGLADEHIETEKMLADSGIVYTLLRNGWYSENYLASAPAALEHGVFIGAAGDGKIASATRADYATAAARVISEAGHEGKVYELAGDSAWTLTQLAAELTKQSGKQVTYQNLSEADFAAALKSVGLPDGLADMLADSDVGASKGGLFDNSKTLSKLIGCPTTTLAESVSHLFNVNN | not soluble |
| MIAQLPSELLSLQLPLRIRIGDAQAFDLGPDPQVTMVIRDPSLLTEITHPSLDALGKAYVEKRLDIEGPISQVIGIGDALSEALGEPDGGAPPVRESHDKDTDAEAIHYHYDLSNDFYQLWLDPEMVYSCAYFETGKEDLATAQLAKLRHLCRKLRLQPGEKLLDVGCGWGGLARLAAREFGVEVTGITLSKEQLALGRERVKAEGLEDRVTLKLLDYRDLPRDGRFDKVVSVGMFEHVGHANLGLYFQQLYEAVRPGGLVMNHGITSRYTDGRPVGKGAGDFIDRYVFPHGELPHLSLAVARMSEAGLEVVDVESLRLHYARTLDFWSANLEARLKEAARLVPEETLRIWRLYLAGCAYGFKRGWINL | not soluble |
| MICSLFVDKVNKETYLCAMKQEYISRIRSFNRYYTKILGILNKYYLGSELGLPEVRIIQDVYLHPDRSSKDISNELNMDKGLLSRLLKQLEQKEYIFRKSTEKDNRMGLVNLTEKGCEVYYRLNTAANQSIERIFSHLEDRQLQRLVHCMDSIYKIINSVETGLTVDNNEPIVIRPIEESDNASIASVLRASVEEHGAPKVGTFYDDPHTDRMFQTFNIKGAEYWIVESNGVILGGGGFYPTKGLPHGYAELSKFHFRPELRGRGIGKRLLQFIEQRAVSAGYVYMYIVSYHQFGNAVSMYEKYGYEHIDNALDQSGLYQDAPFHMVKAL | not soluble |
| MIDGIESGLGIAQAFPSVTGEAKPGNLAADGGKFFGELVSKVSELQAQSDTAIKGLVSGESKGLHEVMIAMEKSSISFQFLSQVRNKAVEAYQEVMRMQV | not soluble |
| MIDKHVACERPLTVYLNWRPIVTLMTLGAKPESLALGYLKNQGFISDVSQLESVIVDWGVNSAAVLTREQTADIDKKLSEKTVTSGCGQGTVYGSFMQDLEGIQLPRPSLKQSTLYSLLKNINEYNDTYKNAGAVHGCGVCEADQILAFVEDVGRHNAVDTLAGDMWLAQDRGDNKIFYTTGRLTSEMVIKVAKMGIPVLLSRSGVTQMGLELAQNLGITIIARAKGRHFLVYHGSENLEFDVNTSPSKLEHHHHHH | not soluble |
| MIDLAPLVRRLAGTPLAEWANGLQAQLDTKMSKGHGDLQRWQSALDALPALQPEKVDLTDSFTLETECDGETRTVLRKALLGLSPWRKGPFNVFGVHIDTEWRSDWKWSRVSPHLDLKGKRVLDVGCGNGYYQWRMLGAGADSVIGVDPNWLFFCQFQAMQRYLPDLPAWHLPFALEDLPANLEGFDTVFSMGVLYHRKSPIDHLLALKDCLVKGGELVMETLVIPGDVHQVLVPEDRYAQMRNVWFLPSVPALELWMRRAGFTDVRCVDVSHTTVEEQRSTEWMRFQSLGDYLDPNDHSKTVEGLPAPMRAVIVGRKP | not soluble |
| MIDNFWRELPRPFFVLAPMEDVTDVVFRHVVSEAGRPDVFFTEFTNSDSYCHPEGMKSVRGRLIFTEDEQPMVAHIWGDNPEYFRQMSIGMAELGFKGIDINMGCPVPNVASRGKGSGLILRPDVAAELIQAAKAGGLPVSVKTRLGFKELSEWEDWLTHIFKQDIANLSIHLRTREEMSQVDAHWELIPEIKKLRDRIAPNTLITINGDILDRKMGLELAEKYGIDGVMIGRGIFKNPFAFEKEPREHSSKEHLDLLRLQLDLQDQYAEVLPRSITGLHRFFKIYVKGFPGAAELRNQLMSTKSTDEVRALLDKFEASVDEAQDSETV | not soluble |
| MIDSIRVEGFRGLKELELSSLRRINVIVGRNNSGKSTLLEALSLFLGSSDPGTFGNVLHEILIWRGWYGIQTVDDLFYNGGDSFSISSTGKTLEALNSKHSLEFKLNGEPFYKIDRESIRRLASQAVLLARFSPKENFEFLTPLTFRRFGYAESLYSYAYERKVVKDSIKVLNEAYPEVEGFSPLLKEDNWVLYVETKYGVYPYYLMGEGFKSAMIISFLSSLLRDGVLLIDSAEAFHHPKSLKVMIQTLVRGSEKNNVQVFLTTHSLELLDLMLEMGRDGFVIYMKNVEGRIEVESIEFQRASELRESIGVDLRGFLEHHHHHH | soluble |
| MIEAVKPKVLATRLIPNVAPELAGQLGLAQYQRSIGMITCNIDDSTYVALDEATKKADVAVVYAKSFYAGAAHASGPRSGEVIGILAAANPADVRAGIDACIAYLENEAFFYSHDGGKTAWFPHTISSTGSYLSQIAGIPEGEPLAYLIAPPLEAIYGIDAALKAADVAMKVLYGPPTETNFGGALLTGTQSACRAACEDFQRAVIDVAENGMKY | not soluble |

Source: the DeepSol protein solubility set
